Test results published in US20260061022A1 (GI INNOVATION, published 2026).

T1: IgE (Homo sapiens (Human), UniProt P01854 1-427)
T1 construct: also called immunoglobulin E
T1 constant: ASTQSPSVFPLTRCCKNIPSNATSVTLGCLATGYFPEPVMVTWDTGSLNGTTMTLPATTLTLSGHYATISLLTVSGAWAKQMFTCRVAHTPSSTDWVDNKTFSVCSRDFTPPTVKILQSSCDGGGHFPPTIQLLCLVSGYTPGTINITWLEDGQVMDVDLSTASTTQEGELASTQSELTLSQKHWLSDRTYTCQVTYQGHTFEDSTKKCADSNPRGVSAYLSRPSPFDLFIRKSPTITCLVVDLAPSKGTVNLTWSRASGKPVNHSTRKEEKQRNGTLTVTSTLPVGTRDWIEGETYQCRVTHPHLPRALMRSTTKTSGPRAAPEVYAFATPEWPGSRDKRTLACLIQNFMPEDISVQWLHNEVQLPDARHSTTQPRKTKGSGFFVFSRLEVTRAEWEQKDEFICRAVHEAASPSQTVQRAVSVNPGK

T2: IgG Fc gamma receptor IIA (UniProt P12318 36-218, limits assumed)
T2 construct: Bought recombinant protein immobilised on an AR2G biosensor; also called FcγRIIA
T2 sequence (looked up): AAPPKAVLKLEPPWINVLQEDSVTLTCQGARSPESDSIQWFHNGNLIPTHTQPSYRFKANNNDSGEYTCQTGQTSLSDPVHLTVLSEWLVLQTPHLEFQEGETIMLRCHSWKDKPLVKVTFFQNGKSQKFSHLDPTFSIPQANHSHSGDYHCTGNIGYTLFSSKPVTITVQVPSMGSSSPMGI

T3: IgG Fc gamma receptor IIB (UniProt P31994 46-217, limits assumed)
T3 construct: Bought recombinant protein immobilised on an AR2G biosensor; also called FcγRIIB
T3 sequence (looked up): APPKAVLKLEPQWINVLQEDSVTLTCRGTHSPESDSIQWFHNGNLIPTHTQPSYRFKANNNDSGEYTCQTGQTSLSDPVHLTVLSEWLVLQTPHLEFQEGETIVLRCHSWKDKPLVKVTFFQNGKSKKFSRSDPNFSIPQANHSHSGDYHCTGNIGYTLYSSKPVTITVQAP


Tests used:
human IgE = human IgE (human, UniProt P01854-1 1-428); experiment: cell-based or functional assay
[1] = target: IgE (Experimental Example 4); experiment: cell-based or functional assay
IgE [2] = target: T1, IgE; experiment: SPR, ProteOn XPR36, IgE coated on GLC chip, analyte flowed
Experimental: (§1) Here, the experiments were conducted by identifying zero base using 25 mM NaOH as a regeneration buffer, and then repeating the above steps. Thereafter, a binding curve was identified using a protein binding analyzer (ProteOn XPR36, Bio-Rad Laboratories, Inc., USA).

[3] = target: T4, IgG Fc gamma receptor IIIB (UniProt O75015 20-208, limits assumed); experiment: BLI response at 4 uM, FcγRIIIB immobilised on AR2G biosensor
T4 construct: Bought recombinant protein immobilised on an AR2G biosensor; also called FcγRIIIB
T4 sequence (O75015 20-208 limits assumed): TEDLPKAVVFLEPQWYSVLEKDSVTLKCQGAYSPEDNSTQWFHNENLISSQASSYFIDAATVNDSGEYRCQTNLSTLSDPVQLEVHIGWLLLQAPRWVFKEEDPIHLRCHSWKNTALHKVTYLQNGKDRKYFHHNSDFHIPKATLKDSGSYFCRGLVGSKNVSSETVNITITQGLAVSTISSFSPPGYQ
Experimental: (§2) Specifically, FcγRI, FcγRIIA, FcγRIIB, FcγRIIIA, and FcγRIIIB recombinant proteins (R & D Systems Inc., 5 μg/ml) which are Fc gamma receptors were immobilized in 300 mM acetate buffer (pH 5) on the activated AR2G biosensor. As a running buffer, PBS containing 0.1% Tween-20 and 1% bovine serum was used. All measurements were carried out at 30° C. with a sample plate shaker at a rate of 1,000 rpm.

IgG Fc gamma receptor I = target: T5, IgG Fc gamma receptor I (UniProt P12314 16-288); experiment: BLI (Octet RED384), FcγRI immobilised on AR2G biosensor, IgETRAP in solution
T5 construct: Bought recombinant protein immobilised on an AR2G biosensor; also called FcγRI
T5 sequence (P12314 16-288 limits assumed): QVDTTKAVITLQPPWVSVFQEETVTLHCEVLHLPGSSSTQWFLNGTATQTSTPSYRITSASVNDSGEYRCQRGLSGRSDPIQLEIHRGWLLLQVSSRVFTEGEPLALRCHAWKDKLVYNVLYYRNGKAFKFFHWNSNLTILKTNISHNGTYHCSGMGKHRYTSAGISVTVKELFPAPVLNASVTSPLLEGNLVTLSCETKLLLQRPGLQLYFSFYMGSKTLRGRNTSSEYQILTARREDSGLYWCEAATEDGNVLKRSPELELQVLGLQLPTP
Experimental: as §2

[4] = target: T2, IgG Fc gamma receptor IIA; experiment: BLI (Octet RED384), FcγRIIA immobilised on AR2G biosensor, IgETRAP in solution
Experimental: as §2

[5] = target: T3, IgG Fc gamma receptor IIB; experiment: BLI (Octet RED384), FcγRIIB immobilised on AR2G biosensor, IgETRAP in solution
Experimental: as §2

IgE [6] = target: T1, IgE; experiment: SPR (ProteOn XPR36), IgE coated on the GLC sensor chip, IgETRAP flowed at 0, 3.2, 6.3, 12.5, 25 and 50 nM
IgE [7] = target: T1, IgE; experiment: kinetic binding measurement of Table 3, KD against omalizumab as reference; the end is tied to FcεRIαECD-Fc2ST by 'exhibits the highest IgE-binding affinity which is 69-fold higher than omalizumab'
Experimental: as §1

IC50, inhibition of β-hexosaminidase secretion by human FcεRI-expressing mouse bone marrow-derived mast cells (human IgE) [ng/mL]	fold higher inhibitory ability on mast cell activity than Xolair (human IgE) [fold]	IC50 (read off the curve); inhibition ratio (%) of beta-hexosaminidase release from mouse bone marrow-derived mast cells, dimer pre-mixed with IgE at 1 ug/mL [1] [µg/mL]	fold better KD than omalizumab (IgE [2]) [fold]	fold better kd than omalizumab (IgE [2]) [fold]	fold weaker ka than omalizumab (IgE [2]) [fold]	binding result [3]	binding result (IgG Fc gamma receptor I)	binding result [4]	binding result [5]	Kd (IgE [6]) [nM]	fold change of equilibrium dissociation constant (KD) against omalizumab (printed as 'higher'; meant as higher affinity) (IgE [7]) [fold]	Binder
~11.2	58	~0.5	69	106	1.5	no binding (tested: 4 uM)	no binding (tested: 4 uM)	no binding (tested: 4 uM)	no binding (tested: 4 uM)	0.215	22 to 69	FcεRIαECD-Fc2ST (Fc fusion, sialic acid added to the glycans by co-expressed α-2,6-sialic acid transferase, Homodimer; also called IgETRAP; FcεRIαECD-Fc2 + a2,6-ST) VPQKPKVSLNPPWNRIFKGENVTLTCNGNNFFEVSSTKWFHNGSLSEETNSSLNIVNAKFEDSGEYKCQHQQVNESEPVYLEVFSDWLLLQASAEVVMEGQPLFLRCHGWRNWDVYKVIYYKDGEALKYWYENHNISITNATVEDSGTYYCTGKVWQLDYESEPLNITVIKAPREKYWLQRNTGRGGEEKKGSKEKEEQEERETKTPECPSHTQPLGVFLFPPKPKDTLMISRTPEVTCVVVDVSQEDPEVQFNWYVDGVEVHNAKTKPREEQFNSTYRVVSVLTVLHQDWLNGKEYKCKVSNKGLPSSIEKTISKAKGQPREPQVYTLPPSQEEMTKNQVSLTCLVKGFYPSDIAVEWESNGQPENNYKTTPPVLDSDGSFFLYSRLTVDKSRWQEGNVFSCSVMHEALHNHYTQKSLSLSLGK
–	–	–	38	73	1.9	–	–	–	–	–	–	FcεRIαECD-Fc2 (Fc fusion, Made in CHO DG44 cells without the sialic acid transferase; Homodimer joined through the hinge cysteine; also called polypeptide dimer) VPQKPKVSLNPPWNRIFKGENVTLTCNGNNFFEVSSTKWFHNGSLSEETNSSLNIVNAKFEDSGEYKCQHQQVNESEPVYLEVFSDWLLLQASAEVVMEGQPLFLRCHGWRNWDVYKVIYYKDGEALKYWYENHNISITNATVEDSGTYYCTGKVWQLDYESEPLNITVIKAPREKYWLQRNTGRGGEEKKGSKEKEEQEERETKTPECPSHTQPLGVFLFPPKPKDTLMISRTPEVTCVVVDVSQEDPEVQFNWYVDGVEVHNAKTKPREEQFNSTYRVVSVLTVLHQDWLNGKEYKCKVSNKGLPSSIEKTISKAKGQPREPQVYTLPPSQEEMTKNQVSLTCLVKGFYPSDIAVEWESNGQPENNYKTTPPVLDSDGSFFLYSRLTVDKSRWQEGNVFSCSVMHEALHNHYTQKSLSLSLGK
–	–	–	22	45	2	–	–	–	–	–	–	FcεRIαECD-Fc3 (Fc fusion, Made in CHO DG44 cells without the sialic acid transferase; Homodimer; also called polypeptide dimer) VPQKPKVSLNPPWNRIFKGENVTLTCNGNNFFEVSSTKWFHNGSLSEETNSSLNIVNAKFEDSGEYKCQHQQVNESEPVYLEVFSDWLLLQASAEVVMEGQPLFLRCHGWRNWDVYKVIYYKDGEALKYWYENHNISITNATVEDSGTYYCTGKVWQLDYESEPLNITVIKAPREKYWLQAQPQAEGSLAKATTAPATTRNTGRGGEEKKGSKEKEEQEERETKTPECPSHTQPLGVFLFPPKPKDTLMISRTPEVTCVVVDVSQEDPEVQFNWYVDGVEVHNAKTKPREEQFNSTYRVVSVLTVLHQDWLNGKEYKCKVSNKGLPSSIEKTISKAKGQPREPQVYTLPPSQEEMTKNQVSLTCLVKGFYPSDIAVEWESNGQPENNYKTTPPVLDSDGSFFLYSRLTVDKSRWQEGNVFSCSVMHEALHNHYTQKSLSLSLGK
–	–	–	24	40	1.7	–	–	–	–	–	–	FcεRIαECD-Fc3ST (Fc fusion, sialic acid added to the glycans by co-expressed α-2,6-sialic acid transferase, Homodimer; also called FcεRIαECD-Fc3 + a2,6-ST; polypeptide dimer) VPQKPKVSLNPPWNRIFKGENVTLTCNGNNFFEVSSTKWFHNGSLSEETNSSLNIVNAKFEDSGEYKCQHQQVNESEPVYLEVFSDWLLLQASAEVVMEGQPLFLRCHGWRNWDVYKVIYYKDGEALKYWYENHNISITNATVEDSGTYYCTGKVWQLDYESEPLNITVIKAPREKYWLQAQPQAEGSLAKATTAPATTRNTGRGGEEKKGSKEKEEQEERETKTPECPSHTQPLGVFLFPPKPKDTLMISRTPEVTCVVVDVSQEDPEVQFNWYVDGVEVHNAKTKPREEQFNSTYRVVSVLTVLHQDWLNGKEYKCKVSNKGLPSSIEKTISKAKGQPREPQVYTLPPSQEEMTKNQVSLTCLVKGFYPSDIAVEWESNGQPENNYKTTPPVLDSDGSFFLYSRLTVDKSRWQEGNVFSCSVMHEALHNHYTQKSLSLSLGK
